Read-outs that look alike come from different tables or passages of the source. Bounds are passed on as bounds.

In one assay the target is Mouse anti hCD40L. In words: FACS cell binding; apparent Kd.
A further assay has as its target Mouse_anti-CD40L. As to the kind of experiment: flow cytometry.
Assay [1] deals with T1, FcγRIA (CD64) (UniProt P12314 16-292).
T1 chain: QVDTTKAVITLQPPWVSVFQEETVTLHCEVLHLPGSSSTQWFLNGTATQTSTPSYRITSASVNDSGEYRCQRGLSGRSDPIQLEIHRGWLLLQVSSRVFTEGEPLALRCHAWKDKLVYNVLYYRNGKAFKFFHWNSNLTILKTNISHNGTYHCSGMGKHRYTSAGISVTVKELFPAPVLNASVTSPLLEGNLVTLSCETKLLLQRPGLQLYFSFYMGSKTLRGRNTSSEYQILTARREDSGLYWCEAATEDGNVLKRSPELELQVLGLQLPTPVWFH
In words: SPR; avid. For orientation: Surface plasmon resonance follows binding to a sensor surface in real time, without labels.

Assay [2] deals with T1, FcγRIA (CD64). In words: SPR; avid.
A further assay concerns the target CD16aV (FcγRIIIaV) (UniProt P08637 17-208). In words: SPR.
The next assay concerns the target T2, CD32aH (FcγRIIaH) (UniProt P12318 34-217).
T2 chain: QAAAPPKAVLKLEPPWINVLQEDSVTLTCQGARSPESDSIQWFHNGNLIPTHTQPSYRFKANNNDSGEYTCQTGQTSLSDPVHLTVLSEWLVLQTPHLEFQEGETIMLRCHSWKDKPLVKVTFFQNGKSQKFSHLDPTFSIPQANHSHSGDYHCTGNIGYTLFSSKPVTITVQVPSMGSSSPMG
In words: SPR.

In another assay the target is CD16aF (FcγRIIIaF) (UniProt P08637 17-208). As to the kind of experiment: SPR.
The next assay concerns the target T3, CD32bF (FcγRIIbF) (UniProt P31994 43-217).
T3 chain: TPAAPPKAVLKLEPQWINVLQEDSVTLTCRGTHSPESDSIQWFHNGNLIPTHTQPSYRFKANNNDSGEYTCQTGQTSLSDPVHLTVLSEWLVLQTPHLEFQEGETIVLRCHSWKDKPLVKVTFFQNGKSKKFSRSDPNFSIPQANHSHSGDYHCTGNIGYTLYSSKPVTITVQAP
As to the kind of experiment: SPR.

Sequence of CD16aF (FcγRIIIaF) (P08637 17-208): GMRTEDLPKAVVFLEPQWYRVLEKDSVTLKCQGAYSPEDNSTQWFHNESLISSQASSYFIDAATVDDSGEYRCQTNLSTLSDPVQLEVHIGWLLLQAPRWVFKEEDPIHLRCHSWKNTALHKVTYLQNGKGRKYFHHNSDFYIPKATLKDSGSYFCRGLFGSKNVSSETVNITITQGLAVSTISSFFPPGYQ
Sequence of CD16aV (FcγRIIIaV) (P08637 17-208 F176V): as the sequence (P08637 17-208) above, with F160V counted along it

B1: D1.1 (ligand)
chain: MIETYNQTSPRSAATGLPISMKIFMYLLTVFLITQMIGSALFAVYLHRRLDKIEDERNLHEDFVFMKTIQRCNTGERSLSLLNCEEIKSQFEGFVKDIMLNKEETKKENSFEMQKGDQNPQIAAHVISEASSKTTSVLQWAEKGYYTMSNNLVTLENGKQLTVKRQGLYYIYAQVTFCSNREASSQAPFIASLCLKSPGRFERILLRAANTHSSAKPCGQQSIHLGGVFELQPGASVFVNVTDPSQVSHGTGFTSFGLLKL
Turning to B1, the Kd with Mouse anti hCD40L came to 0.39 nM; with Mouse_anti-CD40L, 0.339 nM.

B2: TNX03 anti-CD154 monoclonal antibody (antibody)
heavy: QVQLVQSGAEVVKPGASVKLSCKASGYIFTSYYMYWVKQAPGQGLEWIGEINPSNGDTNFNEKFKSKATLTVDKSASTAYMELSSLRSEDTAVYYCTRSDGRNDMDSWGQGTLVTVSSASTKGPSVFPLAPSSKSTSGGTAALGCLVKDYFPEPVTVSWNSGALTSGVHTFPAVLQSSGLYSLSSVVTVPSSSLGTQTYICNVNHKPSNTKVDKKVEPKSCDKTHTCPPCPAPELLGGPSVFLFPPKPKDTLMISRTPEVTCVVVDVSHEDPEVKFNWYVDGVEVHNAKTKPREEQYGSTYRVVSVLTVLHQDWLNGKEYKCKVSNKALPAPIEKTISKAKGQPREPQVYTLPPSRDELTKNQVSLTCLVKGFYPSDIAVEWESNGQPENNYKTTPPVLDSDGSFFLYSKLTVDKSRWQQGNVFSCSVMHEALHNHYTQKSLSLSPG
light: DIVLTQSPATLSVSPGERATISCRASQRVSSSTYSYMHWYQQKPGQPPKLLIKYASNLESGVPARFSGSGSGTDFTLTISSVEPEDFATYYCQHSWEIPPTFGGGTKLEIKRTVAAPSVFIFPPSDEQLKSGTASVVCLLNNFYPREAKVQWKVDNALQSGNSQESVTEQDSKDSTYSLSSTLTLSKADYEKHKVYACEVTHQGLSSPVTKSFNRGEC
As for B2, the Kd is 89.8 nM with FcγRIA (CD64) [1]; 92 nM with FcγRIA (CD64) [2]; more than 5000 nM in the assay with CD16aV (FcγRIIIaV); more than 12000 nM with CD32aH (FcγRIIaH); more than 5000 nM in the assay with CD16aF (FcγRIIIaF); more than 12000 nM with CD32bF (FcγRIIbF).

(Values after patent US20220380478A1 (published 2022).)
